This test has as its target human Hsp90α (residues 1–732) (human, UniProt P07900 1-732). Briefly: ITC.

B1: Tom70:Orf9b_(Helix) complex (complex)
chain 1: MNSLDRAQAAKNKGNKYFKAGKYEQAIQCYTEAISLCPTEKNVDLSTFYQNRAAAFEQLQKWKEVAQDCTKAVELNPKYVKALFRRAKAHEKLDNKKECLEDVTAVCILEGFQNQQSMLLADKVLKLLGKEKAKEKYKNREPLMPSPQFIKSYFSSFTDDIISQPMLKGEKSDEDKDKEGEALEVKENSGYLKAKQYMEEENYDKIISECSKEIDAEGKYMAEALLLRATFYLLIGNANAAKPDLDKVISLKEANVKLRANALIKRGSMYMQQQQPLLSTQDFNMAADIDPQNADVYHHRGQLKILLDQVEEAVADFDECIRLRPESALAQAQKCFALYRQAYTGNNSSQIQAAMKGFEEVIKKFPRCAEGYALYAQALTDQQQFGKADEMYDKCIDLEPDNATTYVHKGLLQLQWKQDLDRGLELISKAIEIDNKCDFAYETMGTIEVQRGNMEKAIDMFNKAINLAKSEMEMAHLYSLCDAAHAQTEVAKKYGLKPPTL
chain 2: IILRLGSPLSLNMARKTLNSLEDKAFQLTPIAVQY
Take B1: the binding result was “binds”.

The record behind these values is publication PMC13426413 (Science Advances, 2026).
